This note sets out measurements from a protein production outcome set (Wang et al. 2014).

A short description of this data set: label from the status in PepcDB records.
As for “MTDQTRTSPLVNRLLKMISLCALGYLLIILAIIIPRGIQSVEQQKQELEEKLALSLSNSAAIALYVNNYDIASEVMDALLLHQEINAVKLASVDGIVFERTTIPSTYKEQNYWSDANRYRLDSPVDGNLIGYLMIHEDHQVIRQQAINQILDQIAVVLIQFLVTFIALIWIVRRLVGKPLTDLSQALSEVRPDHDRKVAVAAEDHHNEIGLVAKSINEFIDASHQALLRERELRQQIERWESYYRTIAEQDTLTGLKNRLGCEKFVLRKQRASTTMVLLLIDLDGFKQVNDTLGHAAGDEVLREIAKRFYALAQTHFSDFVVGRLGGDEFAIYIPLDEFVAESIERFAAQLIESSSEPIGLGQQSAQVGCSIGISHMNSLHIDLEKLLLQADKAMYWVKYRGKHGYHIYRMGEEILPLPSAKELKQDQFR”, the protein production entry is given as “failed”.
Then “MLFEQIAANKRKTVFIILGFFIFVLMVGAAIGIIVWNNYLNGLILAAAIGAVYILIMVMSSSSVVMAMNHAKEVTSKEQAPVLWDTVESMAMVAGIPMPKVYIVEDPSPNAFATGISPEKGAVAVTRGLLNKLERYELEGVIAHEISHIRNYDIRLSTIAIALVAVIAILSDLAMRLIFWGSLTGGRNSRKSDNNNGGGAQIIIYVVALIFVILAPIIATAIQFALSRNREYLADASAVELTRNPDGLIQALQKISGDTKKMEEVSASSESIYFSSPLKSKKDKPGLFDSHPPISSRIERLENM”, with “failed”; and “MKTLHVQTASSSYPVFIGQGIRKKACELLTSLNRPLTRIMFVTDEEVDRLYGDEMLHLLQEKWPVKKVTVPSGEQAKSMDMYTKLQSEAIRFHMDRSSCIIAFGGGVVGDLAGFVAATFMRGIDFIQMPTTLLAHDSAVGGKVAVNHPLGKNLIGAFYQPKAVLYDTDFLRSLPEKELRSGMAEVIKHAFIYDRAFLEELLNIHSLRDITNDQLNDMIFKGISIKASVVQQDEKEEGIRAYLNFGHTLGHAVEAEYGYGQITHGDAVALGMQFALYISEKTVGCEMDRKRLVSWLKSLGYPSQIRKETETSVLLNRMMNDKKTRGGKIQFIVLNELGKVADHTFSRNELESWLNKWRLEETS”, with “failed”.
Turning to “MHKIEQLLQTLAPKGVEFRKLGDIILSLKTGLNPRKFFKLNTPNANNYYVTVRELEEYTIKFTHQTDRIDDNALSLCLKRSNLEKDDIFYSLELEQ”, the protein production entry is “failed”.
Turning to “SVICCAAVNCSNRQGKGEKRAVSFHRFPLKDSKRLIQWLKAVQRDNWTPTKYSFLCSEHFTKDSFSKRLEDQHRLLKPTAVPSIFHLTEKKRGAGGHGRTRRKDASKATGGVRGHSSAATGRGAAGWSPSSSGNPMAKPESRRLKQAALQGEATPRAAQEAASQEQAQQALERTPGDGLATMVAGSQGKAEASATDAGDESATSSIEGGVTDKSGISMDDFTPPGSGACKFIGSLHSYSFSSKHTRERPSVPREPIDRKRLKKDVEPSCSGSSLGPDKGLAQSPPSSSLTATPQKPSQSPSAPPADVTPKPATEAVQSEHSDASPMSINEVILSASGACKLIDSLHSYCFSSRQNKSQVCCLREQVEKKNGELKSLRQRVSRSDSQVRKLQEKLDELRRVSVPYPSSLLSPSREPPKMNPVVEPLSWMLGTWLSDPPGAGTYPTLQPFQYLEEVHISHVGQPMLNFSFNSFHPDTRKPMHRECGFIRLKPDTNKVAFVSAQNTGVVEVEEGEVNGQELCIASHSIARISFAKEPHVEQITRKFRLNSEGKLEQTVSMATTTQPMTQHLHVTYKKVTP”, the protein production result is “not failed”.
Turning to “MFIKGVILSSYGVNGYARVKSISNNFCDFINLKNNKVLLKKSNSSSVEVKVVDVNIKGNSLFLKFEEIDTPEAVRPLIGFELWVDDSLASSLKEGEYYLGKLIGYAIVNNNKKLGEVVAFFEYLNSVFLEVRVGIKFFFIPFLSIYIGDINTQEKTIELKVLDLLKLEHHHHHH”, the protein production entry is recorded as “failed”.
The result for “MMKEFTPAPDSASIVSVTDRVKPVALGMGVTSVHFLGDRAAFVGGEENVAFVDSQGEITTVAVHGGGILSTASDGKRLVMGGDDGKVVSLDAKGEVTLLATDPKRRWIDAVALHADGAFAWSAGKTATVKSGKTEEKSLEVPSTVGGLAFAPKGLRLAIAHYNGATLWFPNMAASAEFLPWAGSHHAVTFSPDNKFLVTAMHEPALHGWRLADNRHMRMTGYPGRVRSMSWSAGGKALATSGADTVILWPFGSKDGPMGKEPAMLAPLQARVSVVACHPKNDILAAGYSDGTVLMVRLEDGAEILVRRNGTPPVAALAWNAKGTLLAFADENGDGGLLEL” reads “failed”; that for “MARYHIETYGCTSNRGESRDIERRLRDAGHHKVETAADADVAILNTCTVVEKTERNMLRRAKELADETADLIVTGCMALAQGEAFADADVDAQVLHWDDVPEAVTNGECPTTTPDAEPILDGVVGILPIARGCMSNCSYCITKQATGRVDSPPVEENVEKARALVHAGAKEIRITGQDTGVYGWDTGERKLPELLERIATEIEGEFRVRVGMANPGGVHGIREELAAVFAEHDEIYNFLHAPVQSGSDDVLADMRRQHEVSQYRDIVETFNDTLGEWTLSTDFIVGFPTEDDDDHEASMDLLRETRPEKINVTRFSKRPGTDAAELKGLGGQTKKDRSKAMTELKMDVVGEAHESMVGTRRDVLVVEEGTGDSVKCYDGAYRQVIVQNATDHGLEPGDFATVEVTSHQTVYAFAEPVDAAAVDDGPAETTAD”, “failed”.
The result for “MTVGASQQTSTIALHNDTGMLMSNLNIFKQPNAFYLIFSIEFWERFGFYGMQAILTVYMVKIMGMDESASFVLFGAFSALVYGFVAIGGWIGDKVIGTKRAITLGAIVMMVGYVLLGLSTADHPLVGPTLIYIAMGFITVGNGLFKANPSSLLAKIYPENDPRLDGAFTMYYMAINLGSFFSMIITPLVAIKMGYGMAFGVSAVGLAITVVNFLFCLRMLKGTGSPADLMPVNKMYLVLVAVGSIIASLVCSYLLQNLTLAHGILVVAGLFILGCYFKEAFSMSGIERAKMLVAFILMLQGVVFFVLYFQMPTSLNFFAINNVEHHIFGFDVAPEQFQALNPFWIMIASPILAATYGKLGDKLAMPFKFAFGMALCALSFLVLSWGTLFANEQGIISSNWLIASYAFQSIGELLVSGLGLAMVAQLVPQRMMGFAMGMWFLTSASAAVIAGWVASLTSTPANVSGATESLHIYGEVFAQIGYVTAGIAIVTFMIAPKLTRICRGESEPLELVTQ” reads “failed”.
In the case of “MDVHQLTEQALALLLQHTGADGGAILIEVDGEIRVAASQGIGSAHTLANNDRVRSALRTERRHRVQLPEDLVVDGMLAQFRPKEVIIDPVRHKEVVLGAVVLASGQGFSAEDRNRLDVFERGLALALHNALLYDRLQTLAALDPLTGALEHHHHHH”, the protein production entry was “not failed”.
For “MAPLNYKTITSRSILSKVLVRATQQWPTDKTLNKQLSELYGAYVNSFVSKFKDKHVITISLEVVNEKFLKDKTPLFEKGLDTLKEIIWNPLIKDRCFDHTYVAQEKSLLSKKLEAMEDNKAQYSFLQLMNYMFKQEPYRYIATGQLEQIPQVTSESLYDTYLSMVQNDDCAIYVVGNINKEEVTQLILDKFAIKPFYLENKESTEITPSFDQPQYIIEKDDVDQAKLNLGYRFPSYYGKSNYYAFIVLNMMFGGDPSSVLFNEVREKQSLAYSIHSQIDGKNGFLFVLSGVSAEKYEQAKDTVIKEFDKIKNGDFDSNKIELAKKIIISHRHEASDRPKSIIEILHNQLLLNRQQTDQDFINAVNQVTKKDVIKLANEAVLDTIYVLTKGDQH”, the protein production entry was “failed”.
On to “MADQPESPSRPRGGLRRLLPWSGADTARTATTVHTVINGERGGQGLAAHQLVPAKAKSGAHDPAAATALLIRLFSHAAHPEALLLAFAEGITSLHGELGDMGVRLSAAYAAGDWPGYGRALRQLIDKYIRTIDIGDSLAEGRTEAEQLRDLLRHALGNALATLLQRSPELAEEAQTLASALRHWRPGHELLTLEQRLRELSHQIGLRAEDASEQQNLLLGLFDLLLENVGELLDDRSWLQGQISVVRQLISGPLDVSSIEQARGTLREVIYKQGLLKQGIAESKTAMREMMVSFVDRLDGMATSTGEYHDRVAGYSQAIGEARGIPDLNRLLQDLLQDTAGVQAQALAARDELLSARRQVEDCEQRIASLEQELKDVAGLVREDQLTGALNRRGFEELFQREAVRTQRSGQPLCVAMLDLDDFRRLNETHGHAGGDAALRHTVDVAKAVLRTTDAIARFGGEEFVLLLPDSTIFEASAAVIRLQRALSQRSLLHDDVRVFISFSAGVALRGTDETQDDVIRRADRAMYDAKSAGKNRVINAD”, for which the protein production entry is “failed”.
